# Source: article PMC5886171
# Assays:
# [1] = biological target: Full-length plasma gelsolin Gly167Arg (human) (UniProt P06396); test: SEC-MALS; 200 µl of 4 mg/ml Gly167Arg GSN separated by gel filtration without calcium, on-line MALS, dn/dc 0.185
# [2] = biological target: Gelsolin G2 domain (amino acids 151–266) carrying the Gly167Arg mutation (human) (UniProt P06396); test: SEC; analytical gel filtration, Superdex 75 Increase 10/300 GL; 0.5 mg/ml isolated dimer or monomer incubated in 20 mM HEPES pH 7.4, 0.3 M NaCl with 1 mM CaCl2 at 4 °C, 1 mM CaCl2 at 25 °C or 1 mM EDTA at 4 °C; time course
# [3] = biological target: Gelsolin G2 domain (amino acids 151–266) carrying the Gly167Arg mutation (human) (UniProt P06396); test: dynamic light scattering; 1 mg/ml monomer in 20 mM HEPES pH 7.4, 0.3 M NaCl, 1 mM CaCl2, incubated at 25 °C; hydrodynamic radius against time, measured at 4 °C; monomer to dimer, pseudo-first-order fit
# [4] = biological target: Gelsolin G2 domain (amino acids 151–266) carrying the Gly167Arg mutation (human) (UniProt P06396); test: dynamic light scattering; 1 mg/ml monomer in 20 mM HEPES pH 7.4, 0.3 M NaCl, 1 mM EDTA, incubated at 4 °C; hydrodynamic radius against time, measured at 4 °C; monomer to dimer, pseudo-first-order fit
Substance,stoichiometry N [1],fraction of dimers at equilibrium [2],pseudo-first-order rate constant k of the conversion of monomers to dimers [3],pseudo-first-order rate constant k of the conversion of monomers to dimers [4]
Full-length plasma gelsolin Gly167Arg (from UniProt P06396 26-782) (natural protein),2,,,
Gelsolin G2 domain (amino acids 151–266) carrying the Gly167Arg mutation (from UniProt P06396 178-293) (domain or fragment),,50%,0.6 h⁻¹,2.1 h⁻¹
